The numbers were not newly measured in PMC10219547, which cites them from elsewhere.

Read-outs that look alike come from different tables or passages of the source.

The target of data set [1] is PTH1R (Homo sapiens) (UniProt Q03431).
The target is the same in data set [2]. The source holds these as a separate data set.

Sequence of UniProt Q03431 (Q03431 27-593): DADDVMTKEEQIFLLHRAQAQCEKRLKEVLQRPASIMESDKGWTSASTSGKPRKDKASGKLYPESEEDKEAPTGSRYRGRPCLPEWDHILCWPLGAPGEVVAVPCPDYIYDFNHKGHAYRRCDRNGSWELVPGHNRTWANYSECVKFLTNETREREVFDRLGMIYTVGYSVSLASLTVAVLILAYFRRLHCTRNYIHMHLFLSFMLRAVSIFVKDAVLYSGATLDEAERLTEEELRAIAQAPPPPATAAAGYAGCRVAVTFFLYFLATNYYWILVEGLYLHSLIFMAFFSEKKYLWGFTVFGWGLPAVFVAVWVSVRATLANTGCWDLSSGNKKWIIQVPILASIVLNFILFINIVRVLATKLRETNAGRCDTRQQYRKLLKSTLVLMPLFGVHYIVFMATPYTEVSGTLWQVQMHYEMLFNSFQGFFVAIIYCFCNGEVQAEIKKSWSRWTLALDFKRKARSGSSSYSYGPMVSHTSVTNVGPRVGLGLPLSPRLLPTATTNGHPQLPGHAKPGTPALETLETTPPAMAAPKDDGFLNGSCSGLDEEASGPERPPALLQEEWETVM

As for TIP39 (from UniProt Q96A98), the Kd with PTH1R (Homo sapiens) [1] was 60 nM.

For the substance TIP(7-39) 7-39 (from UniProt Q96A98), the equilibrium dissociation constant (Kd) with PTH1R (Homo sapiens) [2] was 17 nM.
